From publication PMC11906892

How the values were obtained:
ZYG11B = ZYG11B (Homo sapiens, UniProt Q9C0D3 445-728); test: ITC
ZER1 (ZYG11BL) = ZER1 (ZYG11BL) (Homo sapiens, UniProt Q7Z7L7 520-766); test: ITC
Chain of ZER1 (ZYG11BL) (Q7Z7L7 520-766): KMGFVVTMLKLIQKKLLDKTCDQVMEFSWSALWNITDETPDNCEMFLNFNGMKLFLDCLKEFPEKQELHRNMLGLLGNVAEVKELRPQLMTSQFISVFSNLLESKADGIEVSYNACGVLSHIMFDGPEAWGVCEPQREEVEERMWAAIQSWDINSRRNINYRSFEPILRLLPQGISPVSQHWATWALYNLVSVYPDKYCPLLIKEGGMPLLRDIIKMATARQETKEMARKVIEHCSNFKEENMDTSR

Chain of ZYG11B (Q9C0D3 445-728): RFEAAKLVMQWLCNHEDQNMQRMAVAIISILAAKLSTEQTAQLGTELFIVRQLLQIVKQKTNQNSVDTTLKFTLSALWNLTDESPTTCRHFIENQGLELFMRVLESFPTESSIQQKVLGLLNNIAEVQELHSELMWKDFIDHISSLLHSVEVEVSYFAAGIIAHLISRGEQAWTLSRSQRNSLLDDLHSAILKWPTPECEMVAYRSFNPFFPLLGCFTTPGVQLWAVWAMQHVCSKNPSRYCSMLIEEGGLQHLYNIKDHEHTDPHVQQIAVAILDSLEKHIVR

B1: Apt#Z6 (ssDNA)
DNA: TCACCCGGTTGGGGCACACGTCTTGTTGATGGCTGC
With B1 the Kd (ZYG11B) was 4.69 ± 2.19 µM and the binding result (ZER1 (ZYG11BL)) was “no binding”.
